Results taken from paper PMC4183148.
“And” between values parts separate entries of the source, which are not always exact repeats. Equal values may be shown once. Read-outs that look alike come from different tables or passages of the source.

Experiments:
[1] = target: PKM2 (pyruvate kinase, M2 isoform), endogenous (human (endogenous in HEK293T, H1299, U87)) (UniProt P14618); experiment: SEC
[2] = target: PKM2 (pyruvate kinase, M2 isoform), endogenous (human (endogenous in HEK293T, H1299, U87)) (UniProt P14618); experiment: SEC; remark: listed apart in the source

Sequence of PKM2 (pyruvate kinase, M2 isoform), endogenous, P14618 1-531 (natural protein; other documents disagree on this pair) (P14618 whole entry, canonical isoform): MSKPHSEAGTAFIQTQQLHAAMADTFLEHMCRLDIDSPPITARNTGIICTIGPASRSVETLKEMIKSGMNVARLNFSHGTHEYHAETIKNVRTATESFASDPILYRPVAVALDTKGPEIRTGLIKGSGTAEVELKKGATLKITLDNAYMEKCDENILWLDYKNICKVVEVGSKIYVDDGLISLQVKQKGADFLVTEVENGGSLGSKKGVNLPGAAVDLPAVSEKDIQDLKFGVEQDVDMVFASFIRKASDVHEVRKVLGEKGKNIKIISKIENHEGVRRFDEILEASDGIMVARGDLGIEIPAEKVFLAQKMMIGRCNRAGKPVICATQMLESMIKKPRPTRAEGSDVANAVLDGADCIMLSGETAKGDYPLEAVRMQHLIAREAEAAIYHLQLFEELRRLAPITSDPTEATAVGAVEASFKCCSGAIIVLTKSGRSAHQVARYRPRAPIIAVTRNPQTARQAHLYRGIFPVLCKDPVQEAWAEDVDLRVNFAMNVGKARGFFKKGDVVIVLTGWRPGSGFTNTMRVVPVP

percent dimeric form [1]: 66.5% and 56%
percent tetrameric form [1]: 26.2% and 43.8%
percent dimeric form [2]: 78.9%
percent tetrameric form [2]: 20.1%
Substance: PKM2 (pyruvate kinase, M2 isoform), endogenous, P14618 1-531 (natural protein; other documents disagree on this pair)
